# T1: Trs120 (TRAPPII-specific subunit, in purified TRAPPII) (S. cerevisiae, UniProt Q04183 1-1289)
# T1 construct: Trs120, S. cerevisiae, endogenous; also called Trs120 lid; source: endogenous, purified from S. cerevisiae as a subunit of TRAPPII
# T1 sequence (looked up): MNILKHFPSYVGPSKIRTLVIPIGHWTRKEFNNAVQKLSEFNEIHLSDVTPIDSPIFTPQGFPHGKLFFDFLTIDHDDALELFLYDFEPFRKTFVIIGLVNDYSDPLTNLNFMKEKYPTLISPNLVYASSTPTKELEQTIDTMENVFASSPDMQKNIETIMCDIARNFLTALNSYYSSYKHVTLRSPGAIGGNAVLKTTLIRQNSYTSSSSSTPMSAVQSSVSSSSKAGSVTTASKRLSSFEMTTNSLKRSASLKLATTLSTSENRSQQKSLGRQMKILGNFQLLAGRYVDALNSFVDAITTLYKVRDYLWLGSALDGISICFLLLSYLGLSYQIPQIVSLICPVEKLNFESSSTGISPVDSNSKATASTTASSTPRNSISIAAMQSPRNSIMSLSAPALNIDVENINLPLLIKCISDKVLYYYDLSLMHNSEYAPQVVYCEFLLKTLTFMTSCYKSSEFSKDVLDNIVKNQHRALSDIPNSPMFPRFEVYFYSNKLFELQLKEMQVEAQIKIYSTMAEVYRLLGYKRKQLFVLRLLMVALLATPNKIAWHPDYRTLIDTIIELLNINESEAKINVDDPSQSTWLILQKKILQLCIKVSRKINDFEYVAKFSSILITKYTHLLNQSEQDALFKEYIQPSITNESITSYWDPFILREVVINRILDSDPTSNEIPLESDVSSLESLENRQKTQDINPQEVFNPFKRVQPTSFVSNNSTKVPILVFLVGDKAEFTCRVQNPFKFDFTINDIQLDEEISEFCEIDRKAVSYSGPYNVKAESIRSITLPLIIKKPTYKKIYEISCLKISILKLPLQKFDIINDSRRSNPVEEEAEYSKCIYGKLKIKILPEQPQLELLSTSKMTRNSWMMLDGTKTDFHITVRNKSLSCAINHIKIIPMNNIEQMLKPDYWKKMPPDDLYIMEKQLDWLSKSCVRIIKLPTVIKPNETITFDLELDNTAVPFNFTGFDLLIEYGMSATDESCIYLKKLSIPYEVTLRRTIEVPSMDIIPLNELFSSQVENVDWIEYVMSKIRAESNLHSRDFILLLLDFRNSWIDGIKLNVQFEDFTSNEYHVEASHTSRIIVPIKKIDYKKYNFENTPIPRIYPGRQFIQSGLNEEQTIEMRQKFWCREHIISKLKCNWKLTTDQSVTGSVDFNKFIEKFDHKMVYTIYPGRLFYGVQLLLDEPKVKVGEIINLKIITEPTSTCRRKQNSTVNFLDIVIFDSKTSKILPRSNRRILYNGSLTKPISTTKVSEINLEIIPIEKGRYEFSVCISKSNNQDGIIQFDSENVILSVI
# T2: Trs31 (TRAPP core subunit, in purified TRAPPII) (S. cerevisiae, UniProt Q03337 1-283)
# T2 construct: Trs31, S. cerevisiae, endogenous; source: endogenous, purified from S. cerevisiae as a subunit of TRAPPII
# T2 sequence (looked up): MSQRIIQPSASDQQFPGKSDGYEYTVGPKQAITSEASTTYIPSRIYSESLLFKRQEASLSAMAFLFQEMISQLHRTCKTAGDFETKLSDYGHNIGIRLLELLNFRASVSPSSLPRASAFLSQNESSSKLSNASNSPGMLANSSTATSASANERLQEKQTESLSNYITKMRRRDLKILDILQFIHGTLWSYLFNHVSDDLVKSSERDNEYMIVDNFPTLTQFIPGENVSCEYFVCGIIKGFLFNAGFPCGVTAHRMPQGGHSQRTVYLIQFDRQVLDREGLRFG
# B1: Rab11/Ypt32-7xHis (natural protein, S. cerevisiae, UniProt P51996 1-220, looked up)
# chain: MSNEDYGYDYDYLFKIVLIGDSGVGKSNLLSRFTTDEFNIESKSTIGVEFATRTIEVENKKIKAQIWDTAGQERYRAITSAYYRGAVGALIVYDISKSSSYENCNHWLTELRENADDNVAVGLIGNKSDLAHLRAVPTDEAKNFAMENQMLFTETSALNSDNVDKAFRELIVAIFQMVSKHQVDLSGSGTNNMGSNGAPKGPTISLTPAPKEDKKKKSSN
# notes: Ypt32 (yeast Rab11 paralog), S. cerevisiae; the C-terminal cysteines (residues 221 and 222) were substituted with the 7xHis tag; Made nucleotide-free with calf intestine alkaline phosphatase for the complex with TRAPPII; also called nucleotide-free Rab11/Ypt32; not shown: GST, N-terminal, cleaved; 7xHis, C-terminal, kept
# Assays:
# Experiment in all cases: cryo-EM structure; TRAPPII purified from yeast, incubated with tenfold molar excess of Rab11/Ypt32-7xHis and calf intestine alkaline phosphatase at 4°C overnight (nucleotide-free Rab), complex purified on Calmodulin Sepharose and by SEC; 10 mM tris (pH 8.0), 150 mM NaCl, 0.1% CHAPS, 1 mM Mg acetate, 1 mM dithiothreitol; single-particle cryo-EM
# Settings in all cases: both partners purified
# [1] = target: T1, Trs120 (TRAPPII-specific subunit, in …)
# [2] = target: B1
# [3] = target: T2, Trs31 (TRAPP core subunit, in purified …)
Binder,binding result [1],binding result [2],binding result [3]
"Trs20 (TRAPP core subunit, in purified TRAPPII) (natural protein, S. cerevisiae, UniProt P38334 1-175, looked up, Trs20, S. cerevisiae, endogenous; source: endogenous, purified from S. cerevisiae as a subunit of TRAPPII) MPQYFAIIGKKDNPVYEIEFTNAENPQGFPQDLKELNPFILHASLDIVEDLQWQINPTSQLNGNGGNGSNGGGGFLRSRAVNNTDNCYLGKVDHFYGLAITAYISYSGMKFVMIHGNSANSSVVIDDNNMRSFYQEVHELYVKTLMNPFYKITDPIRSPAFDSRVRTLARKHLSK",binds,–,–
"Bet3 (TRAPP core subunit, in purified TRAPPII) (natural protein, S. cerevisiae, UniProt P36149 1-193, looked up, Bet3, S. cerevisiae, endogenous; source: endogenous, purified from S. cerevisiae as a subunit of TRAPPII) MVSTTQSRSLKAMGEEIWKNKTEKINTELFTLTYGSIVAQLCQDYERDFNKVNDHLYSMGYNIGCRLIEDFLARTALPRCENLVKTSEVLSKCAFKIFLNITPNITNWSHNKDTFSLILDENPLADFVELPMDAMKSLWYSNILCGVLKGSLEMVQLDCDVWFVSDILRGDSQTEIKVKLNRILKDEIPIGED",–,binds,–
"Bet5 (TRAPP core subunit, in purified TRAPPII) (natural protein, S. cerevisiae, UniProt Q03630 1-159, looked up, Bet5, S. cerevisiae, endogenous; source: endogenous, purified from S. cerevisiae as a subunit of TRAPPII) MGIYSFWIFDRHCNCIFDREWTLASNSASGTINSKQNEEDAKLLYGMIFSLRSITQKLSKGSVKNDIRSISTGKYRVHTYCTASGLWFVLLSDFKQQSYTQVLQYIYSHIYVKYVSNNLLSPYDFAENENEMRGQGTRKITNRNFISVLESFLAPMVNQ",–,binds,–
B1,binds,–,binds
"Trs23 (TRAPP core subunit, in purified TRAPPII) (natural protein, S. cerevisiae, UniProt Q03784 1-219, looked up, Trs23, S. cerevisiae, endogenous; source: endogenous, purified from S. cerevisiae as a subunit of TRAPPII) MAIETILVINKSGGLIYQRNFTNDEQKLNSNEYLILASTLHGVFAIASQLTPKALQLTQQTNIENTIPYIPYVGMSSNRSDTRNGGGNNNKHTNNEKLGSFKGDDFFKEPFTNWNKSGLRQLCTDQFTMFIYQTLTGLKFVAISSSVMPQRQPTIATTDKPDRPKSTSNLAIQIADNFLRKVYCLYSDYVMKDPSYSMEMPIRSNLFDEKVKKMVENLQ",–,binds,–

# — paper PMC9106297, “Structure of a TRAPPII-Rab11 activation intermediate reveals GTPase substrate selection mechanisms” (Science Advances, 2022)
